The text below walks through data of patent US20160237154A1 (SORRENTO THERAPEUTICS, published 2016).

The target in assay [1] is T1, human CTLA4 (human, UniProt P16410 36-161, limits assumed).
T1 sequence (looked up): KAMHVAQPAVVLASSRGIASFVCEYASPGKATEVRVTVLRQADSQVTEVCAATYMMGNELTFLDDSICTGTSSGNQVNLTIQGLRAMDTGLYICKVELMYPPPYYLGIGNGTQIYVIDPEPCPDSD
Put plainly: SPR (BiaCore). A general note: Surface plasmon resonance follows binding to a sensor surface in real time, without labels.

The target in assay [2] is T1, human CTLA4. Put plainly: selection of human antibodies; method not described.
Assay [3] has as its target T2, Recombinant human CTLA4/His (human, UniProt P16410 36-162, limits assumed).
T2 construct: not shown: His tag
T2 sequence (looked up): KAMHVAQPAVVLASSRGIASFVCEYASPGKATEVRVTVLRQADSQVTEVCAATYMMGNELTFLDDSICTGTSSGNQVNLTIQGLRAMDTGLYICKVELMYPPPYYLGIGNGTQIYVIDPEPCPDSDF
Put plainly: SPR (Biacore), antibody captured on anti-human Fc, CTLA4/His as analyte, 1:1 model. How it is done:
This example illustrates binding affinities of exemplary anti-CTLA4 antibodies disclosed herein. Affinities were determined using surface plasmon resonance (Biacore). Briefly, Anti-human Fc antibody (GE, BR-1008-39) was immobilized on CM5 sensor chip to approximately 1000 RU using standard NHS/EDC coupling methodology. Antibodies (about 10 μg/ml) were captured for 60 s at a flow rate 10 μl/min Recombinant human CTLA4/His was serially diluted in running buffer (HBS-EP). All measurements were conducted with a flow rate of 30 μL/min Surfaces were regenerated with 3M MgCl₂ for 60 s. A 1:1 (Langmuir) binding model was used to fit the data.

A word on the Kd: it is the free concentration of one partner at which half of the binding sites on the other are occupied at equilibrium, for simple one-to-one binding. One may read the koff as a measure of how fast the partners let go of each other. The kon is a measure of how fast the partners come together.

B1: E8 (antibody, V domains shown)
VH: QVQLVQSGAEVKKPGASVKVSCEASGYTFTNYYIHWLRQAPGQGLEWMGIINPSGGSTTYAQKFQGRITMTRDTSTNTLYMELSSLRSEDTAIYYCARRDCRGPSCYFAYWGQGTTVTVSS
VL: DIVMTQSPSSLSASVGDRVTITCRASQSISSYLNWYQQKPGKAPKLLIYAASSLQSGVPPRFSGSGSGTEFTLTISSLQPEDFATYYCQQANSFPPTFGQGTKVDIK
notes: also called antibody E8
As for B1, in assay [1], the Kd is 58.9 nM, the koff worked out at 0.00488 s⁻¹ and the association rate constant (kon) came out at 82900 M⁻¹ s⁻¹.

B2: G3 (antibody, V domains shown)
VH: QVQLVQSGAEVKKPGASVKVSCKASGYTFTSYYMHWVRQAPGQGLEWMGIINPSGGSTSYAQKFQGRVTMTRDTSTSTVYMELSGLRSEDTAVYYCARYEHDYDSSKATTGYFDYWGQGTLVTVSS
VL: AIQLTQSPDSLAVSLGERATINCKSSQSILYRSNNKNYLAWYQQKPGQPPKLLIYWASTRESGVPDRFSGSGSGTDFTLTISSLQPEDFATYYCQQADRFPITFGQGTRLEIK
For the molecule B2, the binding result in assay [2] was “binds”.

B3: A12 (antibody, V domains shown)
VH: QVQLVESGGGLVQPGGSLRLSCAASGFTFSNYAMNWVRQTPGKGLEWVSVNYNDGFGTFNGYYADSVKGRFIISRDNSKNTLYLQMNSLRVDDTAVYYCARDSGVAGPYYFDNWGQGTLVTVSS
VL: AIQLTQSPSTLSASVGDRVTITCRASQSISSWLAWYQQKPGKAPKLLIYKASSLESGVPSRFSGSGSGTEFTLTISSLQPDDFATYYCQQYNSSPLTFGGGTKLEIK
Consider B3, for which the binding result in assay [2] is “binds”.

B4: F7 (antibody, V domains shown)
VH: QVQLVQSGAEVKKPGASVKVSCKASGYAFDGHYMHWVRQAPGQRLEWMGWVDPHSGATNYAQNFQGGVTMTRDTSINTVYMELSSLKSDDTAVYYCARDFYDTSAKSGAFDIWGQGTMVTVSS
VL: AIQLTQSPSSVSASVGDRVTITCRASQGISSWLAWYQQKPGKAPKLLIYAASSLQSGVPSRFSGSGSGTDFTLTISSLQPEDFATYYCQQVNSFPWAFGQGTKVEIK
notes: captured by anti-human Fc antibody in SPR, so it has a human Fc; also called anti-CTLA4 antibody F7
Consider B4, for which, in assay [3], the Kd is 0.738 nM, the koff turned out to be 0.000217 s⁻¹ and the association rate constant (kon) worked out at 294000 M⁻¹ s⁻¹.

B5: B6 (antibody, V domains shown)
VH: QVQLVQSGAEVKKPGATVKVSCTASGFPFRNYAMHWVRQAPGQRLEWLGWIDAGNGNTKYSQTFHGRVTITRDTSASTAYMELSSLRSEDTAVYYCARDLLWPYLVTSGGAFDIWGQGTMVTVSS
VL: SYELMQPPSTSGTPGQRVTISCSGSSSNIGSHIVNWYQQFPGAAPQLLIYNDDQRPSGVPDRFSGSKSGASASLAISGLQSEDEAHYYCSAWDDILKGPVFGGGTKLTVL
In the case of B5, the binding result in assay [2] was “binds”.

B6: C2 (antibody, V domains shown)
VH: QVQLVQSGAEVKKPGASVKVSCKASGYTFTTHYIHWVRQAPGQGLEWMAIINPNDGVKVYAQKFKGRLTVASDTSATTVYMDLSGLTSDDTAVYYCGREQHGGHHDYWGQGTLVTVSS
VL: QAGLTQPASVSGSPGQSITISCTGTSSDVGGYNYVSWYQQHPGKAPKLMIYDVTNRPSGVSNRFSGSKSGNTASLTISGLQAEDEADYYCKSYTSSSTPYVFGTGTKVTVL
Turning to B6, the binding result in assay [2] is “binds”.

B7: G12 (antibody, V domains shown)
VH: EVQLVESGAEVKKPGASVKVSCKASGYTFTSYGISWVRQAPGQGLEWMGWISAYNGNTNYAQKLQGRVTMTTDTSTSTAYMELRSLRSDDTAVYYCARGPGILTGYYFDYWGQGTLVTVSS
VL: EIVMTQSPSSLSASVGDRVTITCRASQGINYHLAWYQQKPGKAPKLLIYAASALQSGVPSRFSGTGSGTEFTLTISSLQPEDFATYYCQQFNTYPLTFGGGTKLEIK
On to B7, for which, in assay [2], the binding result is “binds”.

B8: F3 (antibody, V domains shown)
VH: QMQLVQSGAEVKKPGASVTVSCKASGYTFTNSYIHWVRQAPGQGLEWVGRLIPSSGYTIFSQKLQGRVSMTRDTSMSTHYLTLSHLRPEDTAVYYCATDGGNYNLDFWGQGTLVTVSS
VL: QPVLTQPPSVSGSPGQSVTISCTGTSSDVGGYNYVSWYQQHPGKAPKLMIYDVSSRPSGVSNRFSGSKSDNTASLTISGLQAEDEADYYCSSYTSSSPYVFGTGTKVTVL
For B8, the binding result in assay [2] was “binds”.

B9: F1 (antibody, V domains shown)
VH: EVQLVQSGAEVKKPGASVKVSCKASGYTFTSYGISWVRQAPGQGLEWMGWISAYNGNTNYAQKLQGRVTMTTDTSTSTAYMELRSLRSDDTAVYYCARVGYGGYFDYWGQGTLVTVSS
VL: SYELMQPPSVSKGLRQTATLTCTGNSNNVGNQGADWLQQHQGHPPKLLSYRNNDRPSGISERFSASRSGSTASLTITGLQPEDEADYYCLAWDSSLSAWVFGGGTKVTVL
As for B9, the binding result in assay [2] is on record as “binds”.

B10: A2 (antibody, V domains shown)
VH: QMQLVQSGAEVKMPGSSVRISCKASGGSFTTHFINWVRQAPGQGLEWMGWMNPNTGNTGYAERFQGRVTLTRDTSISTAYLELSSLRSDDTAVYYCARNPAESGRFDPWGQGTLVTVSS
VL: QSALTQPPSASGSPGRSVTISCTGTSNNVGGYNYVSWYQQHPGKAPKLMIYEVTKRPSGVPDRFSGSKSGNTASLTVSGLQAEDEADYYCGTWDGSLNAYVFGTGTKVTVL
In the case of B10, in assay [2], the binding result was “binds”.

B11: G5 (antibody, V domains shown)
VH: QVQLQQSGPGLVKPSQTLSLTCAISGDSVSSNSAAWNWIRQSPSRGLEWLGRTYYRSKWYNDYAVSVKSRITINPDTSKNQFSLQLNSVTPEDTAVYYCARDRWELPFDYWGQGTTVTVSS
VL: QSVVTQPPSVSAASGQKVIISCSGSNSNIVNNYVSWYQQLPGAAPKVLIYANNKRPSGIPDRFSGSKSGTSAFLAITGLQTGDEADYYCGTWDGSLDVDVFGGGTKLTVL
Regarding B11, the binding result in assay [2] is recorded as “binds”.

B12: G1 (antibody, V domains shown)
VH: QVQLVQSGAEVKKPGASVKVSCKTSGNTFTNYYMHWVRQAPGQGLEWMGIMNPSGGSTSYAQKFQGRVTMTRDKSTSTVYMELSSLTSEDTAVYYCARDLFPHIYGNYYGMDIWGQGTTVTVSS
VL: QSVVTQPPSVSAAPGQNVTISCSGSSSNIGNNYVSWYQQLPGTAPKLLIYDNNRRASGIPDRFSGSKSGTSATLGITGLQTGDEADYYCGTWDRSLTTDWVFGGGTKLTVL
Regarding B12, the binding result in assay [2] was “binds”.

B13: F5 (antibody, V domains shown)
VH: EVQLVQSGTEVKKPGSSVKVSCKASGGSFSNYAISWVRQAPGQGLEWMGRIIPILGIANYAQKFQGRVTITADKSTSTAYMELSSLGSEDTAVYYCARESGSYLDPWGQGTLVTVSS
VL: DIVMTQSPDSLAVSLGERATINCKSSQSVLYSPNNKNYLTWYQQKPGQPPKLLMYWASTRESGVPDRFSASGSGTDFTLTISSLQAEDVAVYYCQQSRSGPYTFGQGTKVEIK
In the case of B13, the binding result in assay [2] was “binds”.

B14: A7 (antibody, V domains shown)
VH: QMQLVQSGAEVKKPGASVKVSCKASGGTFSSYAISWVRQAPGQGLEWMGGIIPIFGTANYAQKFQGRVTITADESTSTAYMELSSLRSEDTAVYYCAREIGSYSSGWYRAFDIWGQGTMVTVSS
VL: DIVMTQSPSTLSASVGDRVTITCRASQSISSWLAWYQQKPGKAPQLLIYKASNLQSGVPSRFSGSGSVTEFSLTISSLLPEDFATYYCQQYSRPPWTFGQGTKVEIK
With B14, the binding result in assay [2] is on record as “binds”.

B15: A4 (antibody, V domains shown)
VH: QVQLVESGGGLIQPGGSLRLSCAASGFSVSNNYMNWVRQAPGKGLEWVSVIYRGGSTYYADSVKGRFTISRDNSKNTLYLQMNSLRTEDTAVYYCLREGGTSGDYVNDWGQGTLVTVSS
VL: QSVVTQPPSVSGAPGQRVTISCTGSSSNIGAGYDVHWYQQLPGTAPKLLIYGNKNRPSGVPDRFSGSKSGTSASLAITGLQAEDEADYYCQAYDSSLSVVFGGGTKLTVL
As for B15, in assay [2], the binding result is recorded as “binds”.

B16: F6 (antibody, V domains shown)
VH: EVQLVESGGGFVKPGRSLRLSCTASGFTFGDYGMSWFRQAPGKGLEWVGFIRSKAYGGTTDYAASVKGRFTISRDDSKSFAYLQMNSLKTEDTAVYYCTRGHYSASIWGQGTLVTVSS
VL: SYELMQPPSVSVAPGKTARITCGGNNIGSKSVHWYQQRPDQAPVLVIYSDNDRPSGIPERFSGSSSGHTATLTISRVEAGDEADYFCQVWDSNKNEWVFGGGTKLTVL
Turning to B16, the binding result in assay [2] is listed as “binds”.

B17: G2 (antibody, V domains shown)
VH: QVQLVESGGGLIQPGGSLRLSCAASGFTVSSAYMSWVRQAPGKGLEWVSVIYRGGTTYYADSVKGRFTISRDNSKNTLYLQMNSLRAEDTAVYYCRGEGGNSGDYFDYWGQGTTVTVSS
VL: NFMLTQPASVSGSPGQSITISCTGTSSDVGGYNFVSWYQQHPGKAPKLMIYDVSKRPSGVSNRFSGSKSGNTASLTISGLQAEDEADYYCSSYTSTNTLDVLFGGGTKLTVL
As to B17, in assay [2], the binding result is given as “binds”.

B18: D5 (antibody, V domains shown)
VH: QVQLQQSGPGLVKPSQTLSLTCAISGDSVSSNSAAWNWIRQSPSRGLEWLGRTYYRSKWYNDYAVSVKSRITINPDTSKNQFSLQLNSVTPEDTAVYYCAMHSGYRNYGMDVWGQGTTVTVSS
VL: QSVVTQPPSVSGAPGQRVTISCTGSSSNIGAGYDVHWYQQLPGTAPKLLIYGNSNRPSGVPDRFSGSKSGTSASLAITGLQAEDEADYYCQSYDSSLSGAVVFGGGTKLTVL
For the molecule B18, in assay [2], the binding result was “binds”.
